Results: article PMC7588467

Molecular target: OP protein cage
Assay: cryo-EM structure; OP cages empty, with SDS (800 equiv.) or with SDS:CS, in TSEC buffer; octahedral symmetry imposed; rigid-body fit of the OP crystal structure (PDB 6FDB)

**Q.** For OP protein cage, which stoichiometry N (monomers per cage) is on record?
**A.** 24
